Source: patent US20130142788A1 (published 2013)
Changes are numbered by the printed parent chain. Blank lines part the entries; values can stand above or below the binder they belong to.

Assays:
[1] = target: T1, recombinant mature dimeric myostatin (human and mouse (mature sequences 100% …, UniProt O08689 268-376)); assay: myostatin capture ELISA: polyclonal anti-myostatin coated, myostatin 1 ug/ml captured, antibody titrated, anti-human kappa-HRP, OPD, A490
T1 construct: also called GDF-8; mature myostatin
T1 sequence: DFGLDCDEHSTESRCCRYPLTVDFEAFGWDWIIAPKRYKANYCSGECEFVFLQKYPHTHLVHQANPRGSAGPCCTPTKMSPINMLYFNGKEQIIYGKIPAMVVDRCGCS
Description: The eleven affinity purified CDRH3 variants were also analyzed for binding activity in the myostatin capture ELISA.
(§1) A 96-well ELISA plate was coated at 4° C. overnight with 2.5 μg/ml polyclonal Antibody to Myostatin (R&D Systems AF788). This plate was then washed 3-times in wash buffer (PBS, 0.1% Tween-20) and blocked for 1 hour at room temperature with block solution (PBS, 0.1% Tween-20+1% bovine serum albumin [BSA]). Then, myostatin was added at 1 μg/ml in block buffer during 1 hour followed by 3-times in wash buffer. Antibodies were then titrated out to a suitable concentration range (approximately 10 to 0.01 μg/ml), added to the plate and incubated for 1 hour at room temperature. The plate was then washed 3-times in wash buffer. An anti-human kappa light chain HRP-conjugated antibody (Sigma A7164, used according to the manufacturer's instructions) was used to detect binding of humanized or chimeric antibodies, such as 10B3 chimera (HcLc) or H0L0. The plate was then washed 3-times in wash buffer and developed with an OPD substrate (according to the manufacturer's instructions) and read at 490 nm on a plate reader.

[2] = target: T1, recombinant mature dimeric myostatin; assay: cell-based or functional assay
[3] = target: T1, recombinant mature dimeric myostatin; assay: ActRIIb neutralisation ELISA: inhibition of 2 nM biotinylated myostatin binding to coated ActRIIb
Description: Recombinant soluble ActRIIb (R&D Systems 339-RBB) was coated in wells of an ELISA plate at 1 μg/ml in carbonate buffer overnight at 4° C. Plates were blocked with PBS containing 0.1% tween 20 and 0.1% BSA and washed following standard ELISA protocols. In parallel, 2 nM biotinylated myostatin (in-house reagent, described above) was pre-incubated with a dilution series of the antibodies of Tables 21 and 22 for 30 minutes at 37° C. The biotinylated myostatin:antibody reactions were then added (50 μl/well) to the ActRIIb coated plate for 1 hour at 37° C. Standard wash procedures were followed prior to addition of 50 μl per well of a 1:200 diluted streptavidin-HRP conjugate (R&D Systems. #890803) followed by a further 37° C. incubation for 1 hour. Plates were again washed and assayed at absorbance 490 nm following substrate (R&D Systems, #DY999) and acid stop solution treatment.

[4] = target: T1, recombinant mature dimeric myostatin; assay: myostatin competition ELISA, biotinylated myostatin on streptavidin, competitor 10B3
Description: (§2) The protocol set out in 5.7 was used but the plates were initially coated at 4° C. overnight with 5 μg/ml of streptavidin. Biotinylated myostatin was added at 0.3 μg/ml block buffer during 1 hour followed by 3-times in wash buffer. 10B3 (final concentration of 0.2 μg/ml) was added into each well and mixed with antibodies titrated out to a suitable concentration range (approximately 10 to 0.01 μg/ml). An anti-mouse HRP-conjugated antibody (DAKO P0260, used according to the manufacturer's instructions) was used to detect binding of the 10B3 antibody.

[5] = target: T1, recombinant mature dimeric myostatin; assay: myostatin competition ELISA, polyclonal Ab capture of myostatin, competitor 10B3
Description: as §1
The protocol set out in 5.7 was used with the addition of 10B3 (final concentration of […]) to each well and mixed with the antibodies titrated out to a suitable concentration range (approximately 10 to 0.01 μg/ml). An anti-mouse HRP-conjugated antibody (DAKO P0260, used according to the manufacturer's instructions) was used to detect binding of the 10B3 antibody.

[6] = target: T1, recombinant mature dimeric myostatin; assay: myostatin competition ELISA, direct capture of myostatin, competitor 10B3
Description: as §1
as §2, with “with 0.2” for “with 5”, “of” for “of streptavidin. Biotinylated”, “myostatin (recombinant in-house, see 1.1 above).” for “myostatin was added at 0.3 μg/ml block buffer during 1 hour followed by 3-times in wash buffer.”, “of 0.3” for “of 0.2”

[7] = target: T1, recombinant mature dimeric myostatin; assay: cell-based or functional assay; remark: listed apart in the source

B2: H7L5 (antibody, IgG1, V domains shown)
VH: QVQLVQSGAEVKKPGASVKVSCKASGYSFTGYFMHWVRQAPGQGLEWMGNIYPYNSVSNYNQRFKARVTMTVDKSTSTAYMELRSLRSDDTAVYYCARRYYYGTGPADWYYDVWGQGTLVTVSS
VL: DIQMTQSPSSLSASVGDRVTITCKASQDINSYLSWFQQKPGKAPKTLIYRANRLVDGVPSKFSGSGSGTDYTLTISSLQPEDFATYYCLQSDEFPLTFGQGTKLEIKR
notes: Humanised IgG1/kappa
IC50, myostatin responsive reporter gene neutralisation assay (A204) [2]: 6.3 nM
IC50 [3]: 0.028 nM

B3: H3L6 (antibody, IgG1, V domains shown)
VH: B2 VH with M48I, S56G, V68A, M70L, V72T, K74T
VL: B2 VL with T69Q
notes: Humanised IgG1/kappa
IC50 [3]: 3.04 nM

B5: H2L2-C91S_Y96L (antibody, V domains shown)
VH: B2 VH with S56G, V72T, K74T, Y100L, Y111F
VL: B2 VL with T46S
rank among the five most potent, top (1) to bottom (5) [4]: 5 rank

B6: H5L5 (antibody, IgG1, V domains shown)
VH: B2 VH with M48I, S56G, V68A, M70L
VL: B2 VL
notes: Humanised IgG1/kappa
IC50, myostatin responsive reporter gene neutralisation assay (A204) [2]: 6.1 nM
IC50 [3]: 0.149 nM

B9: H4L6 (antibody, IgG1, V domains shown)
VH: B2 VH with S56G
VL: B2 VL with T69Q
notes: Humanised IgG1/kappa
IC50, myostatin responsive reporter gene neutralisation assay (A204) [2]: 6.9 nM
IC50 [3]: 0.273 nM

B10: H5L4 (antibody, IgG1, V domains shown)
VH: B2 VH with M48I, S56G, V68A, M70L
VL: B2 VL with T46S, T69Q
notes: Humanised IgG1/kappa
IC50 [3]: 0.211 nM

B12: H7L4 (antibody, IgG1, V domains shown)
VH: B2 VH
VL: B2 VL with T46S, T69Q
notes: Humanised IgG1/kappa
IC50 [3]: 0.038 nM

B13: H5L6 (antibody, IgG1, V domains shown)
VH: B2 VH with M48I, S56G, V68A, M70L
VL: B2 VL with T69Q
notes: Humanised IgG1/kappa
IC50 [3]: 0.166 nM

B14: H2L2-C91S_P100B_F (antibody, V domains shown)
VH: B2 VH with S56G, V72T, K74T, P106F, Y111F
VL: B2 VL with T46S
rank among the five most potent, top (1) to bottom (5) [5]: 1 rank
rank among the five most potent, top (1) to bottom (5) [6]: 1 rank
Mean IC50, A204 in vitro activity assay [7]: 4.24 nM

B15: H6L5 (antibody, IgG1, V domains shown)
VH: B2 VH with V20I, M48I, S56G, R67K, V68A, M70L
VL: B2 VL
IC50, myostatin responsive reporter gene neutralisation assay (A204) [2]: 6 nM

B17: H7L6 (antibody, IgG1, V domains shown)
VH: B2 VH
VL: B2 VL with T69Q
notes: Humanised IgG1/kappa
IC50 [3]: 0.031 nM

B19: H4L4 (antibody, IgG1, V domains shown)
VH: B2 VH with S56G
VL: B2 VL with T46S, T69Q
notes: Humanised IgG1/kappa
IC50, myostatin responsive reporter gene neutralisation assay (A204) [2]: 7.9 nM
IC50 [3]: 0.395 nM

B20: H6L4 (antibody, IgG1, V domains shown)
VH: B2 VH with V20I, M48I, S56G, R67K, V68A, M70L
VL: B2 VL with T46S, T69Q
notes: Humanised IgG1/kappa
IC50 [3]: 0.225 nM

B23: H2L2-C91S_P100B_I (antibody, V domains shown)
VH: B2 VH with S56G, V72T, K74T, P106I, Y111F
VL: B2 VL with T46S
rank among the five most potent, top (1) to bottom (5) [4]: 3 rank
rank among the five most potent, top (1) to bottom (5) [6]: 5 rank
Mean IC50, A204 in vitro activity assay [7]: 4.53 nM

B24: H4L5 (antibody, IgG1, V domains shown)
VH: B2 VH with S56G
VL: B2 VL
notes: Humanised IgG1/kappa
IC50, myostatin responsive reporter gene neutralisation assay (A204) [2]: 6.5 nM
IC50 [3]: 0.336 nM

B25: H6L6 (antibody, IgG1, V domains shown)
VH: B2 VH with V20I, M48I, S56G, R67K, V68A, M70L
VL: B2 VL with T69Q
notes: Humanised IgG1/kappa
IC50 [3]: 0.32 nM

B26: H2L2-C91S_G99D (antibody, V domains shown)
VH: B2 VH with S56G, V72T, K74T, G103D, Y111F
VL: B2 VL with T46S
rank among the five most potent, top (1) to bottom (5) [5]: 5 rank

B27: H3L5 (antibody, IgG1, V domains shown)
VH: B2 VH with M48I, S56G, V68A, M70L, V72T, K74T
VL: B2 VL
notes: Humanised IgG1/kappa
IC50 [3]: 1.08 nM

B29: H3L4 (antibody, IgG1, V domains shown)
VH: B2 VH with M48I, S56G, V68A, M70L, V72T, K74T
VL: B2 VL with T46S, T69Q
notes: Humanised IgG1/kappa
IC50 [3]: 1.31 nM

The next lines start with the values.

binding result [1]: binds
B1: H2L2-C91S_F100G_N (antibody, V domains shown)
VH: B2 VH with S56G, V72T, K74T, Y111N
VL: B2 VL with T46S

binding result [1]: binds
B4: HoLo (antibody, V domains shown)
VH: B2 VH with S28T, S56G, V72T, K74T, Y111F
VL: B2 VL with T46S, Y71F, S91C
notes: also called H0L0; copies: 2 + 2

IC50, myostatin responsive reporter gene neutralisation assay (A204) [2]: 4 nM
IC50 [3]: 0.14 nM
B7: H9L5 (antibody, IgG1, V domains shown)
VH: B2 VH with V20I, M48I, R67K, V68A, M70L
VL: B2 VL
notes: Humanised IgG1/kappa

binding result [1]: binds
B8: H2L2-C91S_G100A_K (antibody, V domains shown)
VH: B2 VH with S56G, V72T, K74T, G105K, Y111F
VL: B2 VL with T46S

binding result [1]: binds
B11: H2L2-C91S_W100E_F (antibody, V domains shown)
VH: B2 VH with S56G, V72T, K74T, W109F, Y111F
VL: B2 VL with T46S

binding result [1]: binds
B16: H2L2-C91S_G99S (antibody, V domains shown)
VH: B2 VH with S56G, V72T, K74T, G103S, Y111F
VL: B2 VL with T46S

IC50 [3]: 0.079 nM
B18: H8L4 (antibody, IgG1, V domains shown)
VH: B2 VH with M48I, V68A, M70L
VL: B2 VL with T46S, T69Q
notes: Humanised IgG1/kappa

IC50 [3]: 0.129 nM
B21: H9L6 (antibody, IgG1, V domains shown)
VH: B2 VH with V20I, M48I, R67K, V68A, M70L
VL: B2 VL with T69Q
notes: Humanised IgG1/kappa

IC50 [3]: 0.141 nM
B22: H9L4 (antibody, IgG1, V domains shown)
VH: B2 VH with V20I, M48I, R67K, V68A, M70L
VL: B2 VL with T46S, T69Q
notes: Humanised IgG1/kappa

IC50 [3]: 0.101 nM
B28: H8L6 (antibody, IgG1, V domains shown)
VH: B2 VH with M48I, V68A, M70L
VL: B2 VL with T69Q
notes: Humanised IgG1/kappa
